Assay results from patent publication CN116535503A (KANGYUAN BOCHUANG BIOLOGICAL TECH BEIJING CO LTD, dated 2023).

T1: GDF15-HIS(百普赛斯，CAT#:GD5-H5149) (human, UniProt Q99988 197-308)
T1 sequence (looked up): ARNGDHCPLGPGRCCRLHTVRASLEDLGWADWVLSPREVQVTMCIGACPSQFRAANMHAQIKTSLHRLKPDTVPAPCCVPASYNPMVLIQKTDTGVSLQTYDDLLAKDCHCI

T2: GDF1(R&D，6937-GD-010) (UniProt P27539 254-372)
T2 sequence (looked up): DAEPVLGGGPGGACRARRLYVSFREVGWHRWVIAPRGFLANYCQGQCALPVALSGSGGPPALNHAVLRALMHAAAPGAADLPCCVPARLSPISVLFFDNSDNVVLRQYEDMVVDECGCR

T3: GDF3(R&D，5754-G3-010) (UniProt Q9NR23 251-364)
T3 sequence (looked up): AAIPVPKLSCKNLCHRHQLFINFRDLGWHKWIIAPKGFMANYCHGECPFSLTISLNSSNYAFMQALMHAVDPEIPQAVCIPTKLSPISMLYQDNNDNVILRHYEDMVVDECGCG


Assays:
[1] = biological target: T1, GDF15-HIS(百普赛斯，CAT#:GD5-H5149); assay: cell-based or functional assay
GDF1(R&D，6937-GD-010) = biological target: T2, GDF1(R&D，6937-GD-010); assay: ELISA, GDF1 coated at 1 μg/ml, HRP-anti-human IgG
GDF3(R&D，5754-G3-010) = biological target: T3, GDF3(R&D，5754-G3-010); assay: ELISA, GDF3 coated at 1 μg/ml, HRP-anti-human IgG

| Bottom (fold luciferase activity), HEK293 SRE-LUC2-cRET-GFRAL reporter cells [1] | IC50(μg/ml), luciferase in HEK293 SRE-LUC2-cRET-GFRAL reporter cells stimulated with 5 ng/ml GDF15-His [1] | binding result (GDF1(R&D，6937-GD-010)) | binding result (GDF3(R&D，5754-G3-010)) | Binder |
| --- | --- | --- | --- | --- |
| 1.1 | 0.0225 µg/mL | no binding (tested: 4μg/ml) | no binding (tested: 4μg/ml) | 53E5(hz) (antibody, human IgG1, kappa, V domains shown, also called 人源化抗体53E5(hz); 53E5人源化) VH: QVQLQESGPGLVKPSETLSLTCTFSGFSLSTSGMGVGWIRQPPGKGLEWLAHILWDDVKRYNPALKSRLTISKDSSKSQISLKLSSVTAADTAVYYCVQMAWDWFAYWGQGTTVTVSS VL: DIQMTQSPSSLSASVGDRVTITCKASQNVDTNVAWYQQKPGQSPKALIYSASYRSSGVPSRFSGSGSGTDFTLTISSLQPEDFATYYCQQYHSYPTFGQGTRLEIKR |
| 1.03 | 0.0447 µg/mL | – | – | AV380-hIgG1 (antibody) heavy: not shown light: DIQMTQSPASLSASVGETVTITCRTSENLHNYLAWYQQKQGKSPQLLVYDAKTLADGVPSRFSGSGSGTQYSLKINSLQPEDFGSYYCQHFWSSPYTFGGGTKLEIKRTVAAPSVFIFPPSDEQLKSGTASVVCLLNNFYPREAKVQWKVDNALQSGNSQESVTEQDSKDSTYSLSSTLTLSKADYEKHKVYACEVTHQGLSSPVTKSFNRGEC |
